The text below walks through data of paper doi:10.1101/2021.04.06.21255004, “Hemoglobin Interacts with Endothelial Nitric Oxide Synthase to Regulate Vasodilation in Human Resistance Arteries” (medRxiv, 2021).

In this assay the target is T1, purified human alpha globin (human, UniProt P69905 1-142, biotinylated using EZ-Link NHS-PEG4 Biotinylation Kit).
T1 construct: hemoglobin subunit alpha, human; called full-length alpha globin in the discussion; Immobilised through biotin on streptavidin biosensors; also called full-length alpha globin; source: purified
T1 sequence (P69905 whole entry): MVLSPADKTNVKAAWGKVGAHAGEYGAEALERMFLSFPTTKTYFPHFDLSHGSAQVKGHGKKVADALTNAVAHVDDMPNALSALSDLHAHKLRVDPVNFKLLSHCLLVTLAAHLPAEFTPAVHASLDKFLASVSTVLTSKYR
As to the kind of experiment: BLI; Octet RED96; biotinylated alpha globin immobilised on streptavidin biosensors; analyte in solution, 120 s association, 120 s dissociation in assay buffer. Conditions: both partners purified.

B1: alpha hemoglobin stabilizing protein (natural protein, UniProt Q9NZD4 1-102, looked up)
chain: MALLKANKDLISAGLKEFSVLLNQQVFNDPLVSEEDMVTVVEDWMNFYINYYRQQVTGEPQERDKALQELRQELNTLANPFLAKYRDFLKSHELPSHPPPSS
notes: alpha hemoglobin stabilizing protein; also called AHSP
B1 gave a Kd of 109 nM. That is a sub-micromolar value.
